System: Lrp (C-terminal His6 as stated; cloned NdeI/XhoI in pET28a) (Escherichia coli K-12 (strain FW102 genomic DNA))
Experiment: EMSA
Conditions: no effector; apparent overall Kd; four complexes B1-B4; 10 mM Tris-HCl pH 7.4, 5 mM MgCl2, 250 mM KCl, 2.5 mM CaCl2, 0.5 mM DTT, 2.5% glycerol, 37 C 25 min; L-Arg and/or L-Leu when indicated; excess sonicated …

artP control region
Kd: 200 nM

From article PMC6640053
